Measurements: patent US20150132307A1 (Hoffmann-La Roche, published 2015)
Numbering of substitutions follows the chain as printed. Numbers in names are those of the source.

B1: <IL17> 9C6-2B6-134 (antibody, V domains shown)
VH: EVQLVESGGGLVQPGGSLRLSCAASGFSLDSYGVHWVRQAPGKGLEWVSVIWSDGTTTYNSALKSRFTISRDNSKNTLYLQMNSLRAEDTAVYYCARDTHYRLYYYAMDYWGQGTTVTVSS
VL: DIVMTQSPLSLPVTPGEPASISCRSSQSLVHSNGDTYFHWYLQKPGQSPQLLIYKVSNRFSGVPDRFSGSGSGTDFTLKISRVEAEDVGVYYCSQTTHAPFTFGQGTKLEIK
notes: Humanized variant
B2: <IL17> 9C6-2B6-136 (antibody, V domains shown)
VH: B1 VH with P41T, D72E, S74A, T77S, E88G
VL: B1 VL
notes: Humanized variant with HC136 and LC136
B3: Bispecific <Tweak-IL-17> #4 antibody (bispecific antibody, human IgG1, kappa)
heavy 1: not shown
heavy 2: not shown
light: DIVMTQSPLSLPVTPGEPASISCRSSQSLVHSNGDTYFHWYLQKPGQSPQLLIYKVSNRFSGVPDRFSGSGSGTDFTLKISRVEAEDVGVYYCSQTTHAPFTFGQGTKLEIKRTVAAPSVFIFPPSDEQLKSGTASVVCLLNNFYPREAKVQWKVDNALQSGNSQESVTEQDSKDSTYSLSSTLTLSKADYEKHKVYACEVTHQGLSSPVTKSFNRGEC
notes: Bivalent one-armed scFab format (WO 2011/117330), IgG1 knobs-into-holes
B4: Bispecific <Tweak-IL-17> #20 antibody (bispecific antibody, human IgG4 S228P, kappa)
heavy 1: EVQLVESGGGLVQPGGSLRLSCAASGFSLDSYGVHWVRQATGKGLEWVSVIWSDGTTTYNSALKSRFTISRENAKNSLYLQMNSLRAGDTAVYYCARDTHYRLYYYAMDYWGQGTTVTVSSASTKGPSVFPLAPCSRSTSESTAALGCLVKDYFPEPVTVSWNSGALTSGVHTFPAVLQSSGLYSLSSVVTVPSSSLGTKTYTCNVDHKPSNTKVDKRVESKYGPPCPPCPAPEFEGGPSVFLFPPKPKDTLMISRTPEVTCVVVDVSQEDPEVQFNWYVDGVEVHNAKTKPREEQFNSTYRVVSVLTVLHQDWLNGKEYKCKVSNKGLPSSIEKTISKAKGQPREPQVCTLPPSQEEMTKNQVSLSCAVKGFYPSDIAVEWESNGQPENNYKTTPPVLDSDGSFFLVSRLTVDKSRWQEGNVFSCSVMHEALHNHYTQKSLSLSLGK
heavy 2: not shown
light: B3 light
notes: Bivalent one-armed scFab format, IgG4 S228P/L235E knobs-into-holes
B5: <IL17> 9C6-2B6 (antibody, V domains shown)
VH: QVQLKESGPGLVAPSQSLSITCTVSGFSLDSYGVHWVRQPPGKGLEWLVVIWSDGTTTYNSALKSRLSITKDNSKSQVFLKMNSLQTDDTAIYYCARDTHYRLYYYAMDYWGQGTSVTVSS
VL: DVVMTQTPLSLPVSLGDQASISCRSSQSLVHSNGDTYFHWYLQKPGQSPKLLIYKVSNRFSGVPDRFSGSGSGTDFTLKINRVEAEDLGVYFCSQTTHAPFTFGSGTKLEIK
notes: Mouse hybridoma antibody; also called mouse clone <IL17>9C6-2B6

What was measured:
[1] = target: T1, recombinant human IL-17 (Peprotech #200-17) (human, UniProt Q16552 20-155); assay: cell-based or functional assay
[2] = target: T1, recombinant human IL-17 (Peprotech …); assay: cell-based or functional assay; remark: listed apart in the source
Human IL17B = target: T2, Human IL17B (human, UniProt Q9UHF5 21-180); assay: ELISA on coated IL-17 subtype; OD relative to IL-17A binding (100)
T2 sequence: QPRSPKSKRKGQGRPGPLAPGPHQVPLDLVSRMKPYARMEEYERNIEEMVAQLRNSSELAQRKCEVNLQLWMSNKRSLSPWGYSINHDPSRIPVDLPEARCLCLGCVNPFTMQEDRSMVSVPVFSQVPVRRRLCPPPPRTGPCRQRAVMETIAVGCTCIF
Experimental: (§1) NUNC® Maxisorp plates (96-well) are coated with recombinant human IL-17 (Peprotech #200-17, www.peprotech.com) at a concentration of 0.5 μg/ml in PBS ([…]). Plates are incubated at 37° C. on an orbital shaker with agitation for 2 hours. Thereafter coating solution is removed and 100 μl/well PBSTC (phosphate buffered saline, 0.05% Tween®20, 2% chicken serum) is added. Plates are incubated at room temperature for 1 hour. […] The second antibody is diluted 1:10000 in PBSTC and plates are incubated for 1 hour at room temperature with agitation. Second antibody is removed, plates are washed three times with 200 μl/well PBST (phosphate buffered saline, 0.05% Tween®20) and 100 μl/well ABTS® (Roche Diagnostics GmbH) is added. Optical density is measured at 405/492 nm in relation to IL-17A binding (set as 100%). Binding to other human IL-17 subtypes (IL-17B, IL-17C, IL-17D, IL-17E and IL-17F) were performed with the same assay format.

Human IL17C = target: T3, Human IL17C (human, UniProt Q9P0M4 19-197); assay: as above
T3 sequence: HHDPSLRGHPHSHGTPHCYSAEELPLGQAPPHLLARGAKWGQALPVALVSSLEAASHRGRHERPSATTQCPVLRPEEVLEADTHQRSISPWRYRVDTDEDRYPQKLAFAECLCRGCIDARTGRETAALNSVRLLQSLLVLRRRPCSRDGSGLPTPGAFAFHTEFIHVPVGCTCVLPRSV
Experimental: as §1

Human IL17D = target: T4, Human IL17D (human, UniProt Q8TAD2 16-202, limits assumed); assay: as above
T4 sequence: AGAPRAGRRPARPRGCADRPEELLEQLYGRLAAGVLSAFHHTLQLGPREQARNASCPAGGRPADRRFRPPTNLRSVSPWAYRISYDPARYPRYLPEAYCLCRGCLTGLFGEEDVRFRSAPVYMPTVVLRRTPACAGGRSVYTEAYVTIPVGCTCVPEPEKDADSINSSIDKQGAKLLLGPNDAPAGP
Experimental: as §1

Human IL17F = target: T5, Human IL17F (human, UniProt Q96PD4 31-163); assay: as above
T5 sequence: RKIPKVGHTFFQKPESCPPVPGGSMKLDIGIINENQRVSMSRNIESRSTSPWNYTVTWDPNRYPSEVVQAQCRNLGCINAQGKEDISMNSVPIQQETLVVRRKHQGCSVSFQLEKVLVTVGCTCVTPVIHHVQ
Experimental: as §1

IL-17 F/F = target: T6, IL-17 F/F (human, UniProt Q96PD4 31-163); assay: SPR (BIAcore T100), antibody captured by anti-human F(ab')2, IL17 as analyte, 25 C
T6 construct: read as the homodimer of IL17F
T6 sequence: T5 sequence
Experimental: (§2) Around 12000 resonance units (RU) of the capturing system (10 μg/ml goat anti human F(ab′)2; Order Code: 28958325; GE Healthcare Bio-Sciences AB, Schweden) were coupled on a CMS chip at pH 5.0 by using an amine coupling kit supplied by the GE Healthcare. The sample and system buffer was PBS-T (10 mM phosphate buffered saline including 0.05% Tween20) pH 7.4. The bispecific antibody was captured by injecting a 50 nM solution for 1 min at a flow of 10 μl/min. Association was measured by injection human IL17 in various concentrations in solution for 3 min at a flow of 30 μl/min starting with 50 nM in 1:1 dilutions. The dissociation phase was monitored for up to 5 min and triggered by switching from the sample solution to running buffer. The surface was regenerated by two times 60 sec. washing with a glycin pH 2.1 solution at a flow rate of 30 μl/min. Bulk refractive index differences were corrected by subtracting the response obtained from a goat anti human F(ab′)2 surface. Blank injections are also subtracted (=double referencing). For calculation of apparent KD and other kinetic parameters the Langmuir 1:1 model was used.

human IL17A/A = human IL17A/A (human, UniProt Q16552 24-155, limits assumed); assay: SPR (BIAcore T100), antibody captured by anti-human F(ab')2, IL17 as analyte, 25 C, apparent KD, 1:1 model
Experimental: as §2

IL-17 A/F = target: T7, IL-17 A/F (human, UniProt Q16552 24-155; Q96PD4 31-163); assay: SPR (BIAcore T100), antibody captured by anti-human F(ab')2, IL17 as analyte, 25 C, 1:1 model
T7 construct: read as the heterodimer of IL17A and IL17F
Experimental: as §2

human Tweak-Fc [3] = target: T8, human Tweak-Fc (human, UniProt O43508 106-249, limits assumed); assay: SPR (BIAcore T100), TWEAK ligand (Tweak-Fc) amine-coupled on C1 chip, bispecific antibody as analyte, 25 C
T8 construct: not shown: Fc part
T8 sequence: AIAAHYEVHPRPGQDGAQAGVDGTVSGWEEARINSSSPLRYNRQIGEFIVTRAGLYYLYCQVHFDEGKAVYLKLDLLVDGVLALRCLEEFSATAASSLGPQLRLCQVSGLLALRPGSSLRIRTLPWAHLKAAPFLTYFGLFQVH
Excerpt: (§3) The BIAcore® system is well established for the study of molecule interactions. SPR-technology is based on the measurement of the refractive index close to the surface of a gold coated biosensor chip. Changes in the refractive index indicate mass changes on the surface caused by the interaction of immobilized ligand with analyte injected in solution. The mass increases if molecules bind immobilized ligands on the surface, and vice versa, the mass decreases in case of dissociation of the analyte from the immobilized ligand (reflecting complex dissociation). SPR allows a continuous real-time monitoring of ligand/analyte binding and thus the determination of the association rate constant (ka), the dissociation rate constant (kd), and of the equilibrium constant (KD).
(§4) Around 100 resonance units (RU) of TWEAK was immobilized on the C1 chip surface at pH 5.0 using an amine coupling kit supplied by the GE Healthcare. The sample and system buffer was PBS-T (10 mM phosphate buffered saline including 0.05% Tween20) pH 7.4. Association was measured by injection the bispecific antibody in various concentrations in solution for 3 min at a flow of 30 μl/min starting with 50 nM in 1:1 dilutions. The dissociation phase was monitored for up to 10 min and triggered by switching from the sample solution to running buffer. […]

human Tweak-Fc [4] = target: T8, human Tweak-Fc; assay: SPR (BIAcore T100), TWEAK ligand (Tweak-Fc) amine-coupled on C1 chip, bispecific antibody as analyte, 25 C, 1:1 model
Excerpt: as §3
Around 100 resonance units (RU) of TWEAK was immobilized on the C1 chip surface at pH 5.0 using an amine coupling kit supplied by the GE Healthcare. The sample and system buffer was PBS-T (10 mM phosphate buffered saline including 0.05% Tween20) pH 7.4. Association was measured by injection the bispecific antibody in various concentrations in solution for 3 min at a flow of 30 μl/min starting with 50 nM in 1:1 dilutions. The dissociation phase was monitored for up to 10 min and triggered by switching from the sample solution to running buffer. The surface was regenerated by three times 30 sec. washing with a 3M MgCl2 solution at a flow rate of 30 μl/min. Bulk refractive index differences were corrected by subtracting the response obtained from a blank-coupled surface. Blank injections are also subtracted (=double referencing). For calculation of apparent KD and other kinetic parameters the Langmuir 1:1 model was used.

human Tweak-Fc [5] = target: T8, human Tweak-Fc; assay: SPR (BIAcore T100), TWEAK ligand (Tweak-Fc) amine-coupled on C1 chip, bispecific antibody as analyte, 25 C, apparent KD, 1:1 model
Excerpt: as §3, §4

[6] = target: T9, Recombinant human TWEAK (R&D Systems; Cat. #1090-TW/CF) (human, UniProt O43508 97-249, limits assumed); assay: cell-based or functional assay
T9 sequence: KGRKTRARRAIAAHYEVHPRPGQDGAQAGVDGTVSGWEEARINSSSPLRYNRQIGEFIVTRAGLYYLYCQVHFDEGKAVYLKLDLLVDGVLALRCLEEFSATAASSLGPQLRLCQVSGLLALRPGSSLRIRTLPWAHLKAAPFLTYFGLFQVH

Chain of human IL17A/A (Q16552 24-155 limits assumed): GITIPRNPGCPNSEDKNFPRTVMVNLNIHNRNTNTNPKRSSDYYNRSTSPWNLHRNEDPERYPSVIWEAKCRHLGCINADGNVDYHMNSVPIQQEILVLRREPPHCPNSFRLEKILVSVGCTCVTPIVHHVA
T1 sequence (Q16552 20-155 limits assumed): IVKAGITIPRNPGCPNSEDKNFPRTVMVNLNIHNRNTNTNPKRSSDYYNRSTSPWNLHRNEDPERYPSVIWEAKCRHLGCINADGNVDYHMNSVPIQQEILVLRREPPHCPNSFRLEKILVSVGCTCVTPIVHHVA
T7 sequence (Q16552 24-155 limits assumed, one chain of several): as the sequence (Q16552 24-155 limits assumed) above

| Binder | IL-8 Inhibition IC50 (nM) (CCD-25SK cells, IL-17A + TNF-alpha) [1] | IL-6 IC50 [nM] per valency (IL-17 induced cytokine production, HFLS-RA) [2] [nM] | IL-8 IC50 [nM] per valency (IL-17 induced cytokine production, HFLS-RA) [2] [nM] | binding result (Human IL17B) | binding result (Human IL17C) | binding result (Human IL17D) | binding result (Human IL17F) | binding result (IL-17 F/F) | Kd (human IL17A/A) [nM] | Kd (IL-17 A/F) [nM] | T½ (human Tweak-Fc [3]) [h] | koff (human Tweak-Fc [4]) [s⁻¹] | kon (human Tweak-Fc [4]) [M⁻¹ s⁻¹] | Kd (human Tweak-Fc [5]) [nM] | IC50 (nM) per valency, Tweak induced HFLS proliferation (CellTiter Glo) [6] [nM] |
| --- | --- | --- | --- | --- | --- | --- | --- | --- | --- | --- | --- | --- | --- | --- | --- |
| B1 | 4.5 | 3.56 | 2.2 | no binding (tested: 10 µg/ml antibody) | no binding (tested: 10 µg/ml antibody) | no binding (tested: 10 µg/ml antibody) | no binding (tested: 10 µg/ml antibody) |  |  |  |  |  |  |  |  |
| B2 | 1.8 | 1.62 | 1.74 | no binding (tested: 10 µg/ml antibody) | no binding (tested: 10 µg/ml antibody) | no binding (tested: 10 µg/ml antibody) | no binding (tested: 10 µg/ml antibody) | no binding (tested: IL17 injected starting with 50 nM) | 0.18 | 0.26 |  |  |  |  |  |
| B3 |  | 1.72 | 1.1 |  |  |  |  | no binding (tested: IL17 injected starting with 50 nM) | 0.15 | 0.27 | 3.55 | 5.42e-05 | 426000 | 0.127 | 0.157 |
| B4 |  | 1.38 | 0.9 |  |  |  |  | no binding (tested: IL17 injected starting with 50 nM) | < 0.2 |  | 3.63 | 5.31e-05 | 810000 | 0.0656 | 0.08 |
| B5 |  |  |  | no binding (tested: 10 µg/ml antibody) | no binding (tested: 10 µg/ml antibody) | no binding (tested: 10 µg/ml antibody) | no binding (tested: 10 µg/ml antibody) |  |  |  |  |  |  |  |  |
